The labels stand for the following.
B1: LRP6: N1039Q (protein)
parent chain: MGAVLRSLLACSFCVLLRAAPLLLYANRRDLRLVDATNGKENATIVVGGLEDAAAVDFVFSHGLIYWSDVSEEAIKRTEFNKTESVQNVVVSGLLSPDGLACDWLGEKLYWTDSETNRIEVSNLDGSLRKVLFWQELDQPRAIALDPSSGFMYWTDWGEVPKIERAGMDGSSRFIIINSEIYWPNGLTLDYEEQKLYWADAKLNFIHKSNLDGTNRQAVVKGSLPHPFALTLFEDILYWTDWSTHSILACNKYTGEGLREIHSDIFSPMDIHAFSQQRQPNATNPCGIDNGGCSHLCLMSPVKPFYQCACPTGVKLLENGKTCKDGATELLLLARRTDLRRISLDTPDFTDIVLQLEDIRHAIAIDYDPVEGYIYWTDDEVRAIRRSFIDGSGSQFVVTAQIAHPDGIAVDWVARNLYWTDTGTDRIEVTRLNGTMRKILISEDLEEPRAIVLDPMVGYMYWTDWGEIPKIERAALDGSDRVVLVNTSLGWPNGLALDYDEGKIYWGDAKTDKIEVMNTDGTGRRVLVEDKIPHIFGFTLLGDYVYWTDWQRRSIERVHKRSAEREVIIDQLPDLMGLKATNVHRVIGSNPCAEENGGCSHLCLYRPQGLRCACPIGFELISDMKTCIVPEAFLLFSRRADIRRISLETNNNNVAIPLTGVKEASALDFDVTDNRIYWTDISLKTISRAFMNGSALEHVVEFGLDYPEGMAVDWLGKNLYWADTGTNRIEVSKLDGQHRQVLVWKDLDSPRALALDPAEGFMYWTEWGGKPKIDRAAMDGSERTTLVPNVGRANGLTIDYAKRRLYWTDLDTNLIESSNMLGLNREVIADDLPHPFGLTQYQDYIYWTDWSRRSIERANKTSGQNRTIIQGHLDYVMDILVFHSSRQSGWNECASSNGHCSHLCLAVPVGGFVCGCPAHYSLNADNRTCSAPTTFLLFSQKSAINRMVIDEQQSPDIILPIHSLRNVRAIDYDPLDKQLYWIDSRQNMIRKAQEDGSQGFTVVVSSVPSQNLEIQPYDLSIDIYSRYIYWTCEATNVINVTRLDGRSVGVVLKGEQDRPRAVVVNPEKGYMYFTNLQERSPKIERAALDGTEREVLFFSGLSKPIALALDSRLGKLFWADSDLRRIESSDLSGANRIVLEDSNILQPVGLTVFENWLYWIDKQQQMIEKIDMTGREGRTKVQARIAQLSDIHAVKELNLQEYRQHPCAQDNGGCSHICLVKGDGTTRCSCPMHLVLLQDELSCGEPPTCSPQQFTCFTGEIDCIPVAWRCDGFTECEDHSDELNCPVCSESQFQCASGQCIDGALRCNGDANCQDKSDEKNCEVLCLIDQFRCANGQCIGKHKKCDHNVDCSDKSDELDCYPTEEPAPQATNTVGSVIGVIVTIFVSGTVYFICQRMLCPRMKGDGETMTNDYVVHGPASVPLGYVPHPSSLSGSLPGMSRGKSMISSLSIMGGSSGPPYDRAHVTGASSSSSSSTKGTYFPAILNPPPSPATERSHYTMEFGYSSNSPSTHRSYSYRPYSYRHFAPPTTPCSTDVCDSDYAPSRRMTSVATAKGYTSDLNYDSEPVPPPPTPRSQYLSAEENYESCPPSPYTERSYSHHLYPPPPSPCTDSS
B2: LRP6: N692Q (protein)
parent chain: MGAVLRSLLACSFCVLLRAAPLLLYANRRDLRLVDATNGKENATIVVGGLEDAAAVDFVFSHGLIYWSDVSEEAIKRTEFNKTESVQNVVVSGLLSPDGLACDWLGEKLYWTDSETNRIEVSNLDGSLRKVLFWQELDQPRAIALDPSSGFMYWTDWGEVPKIERAGMDGSSRFIIINSEIYWPNGLTLDYEEQKLYWADAKLNFIHKSNLDGTNRQAVVKGSLPHPFALTLFEDILYWTDWSTHSILACNKYTGEGLREIHSDIFSPMDIHAFSQQRQPNATNPCGIDNGGCSHLCLMSPVKPFYQCACPTGVKLLENGKTCKDGATELLLLARRTDLRRISLDTPDFTDIVLQLEDIRHAIAIDYDPVEGYIYWTDDEVRAIRRSFIDGSGSQFVVTAQIAHPDGIAVDWVARNLYWTDTGTDRIEVTRLNGTMRKILISEDLEEPRAIVLDPMVGYMYWTDWGEIPKIERAALDGSDRVVLVNTSLGWPNGLALDYDEGKIYWGDAKTDKIEVMNTDGTGRRVLVEDKIPHIFGFTLLGDYVYWTDWQRRSIERVHKRSAEREVIIDQLPDLMGLKATNVHRVIGSNPCAEENGGCSHLCLYRPQGLRCACPIGFELISDMKTCIVPEAFLLFSRRADIRRISLETNNNNVAIPLTGVKEASALDFDVTDNRIYWTDISLKTISRAFMNGSALEHVVEFGLDYPEGMAVDWLGKNLYWADTGTNRIEVSKLDGQHRQVLVWKDLDSPRALALDPAEGFMYWTEWGGKPKIDRAAMDGSERTTLVPNVGRANGLTIDYAKRRLYWTDLDTNLIESSNMLGLNREVIADDLPHPFGLTQYQDYIYWTDWSRRSIERANKTSGQNRTIIQGHLDYVMDILVFHSSRQSGWNECASSNGHCSHLCLAVPVGGFVCGCPAHYSLNADNRTCSAPTTFLLFSQKSAINRMVIDEQQSPDIILPIHSLRNVRAIDYDPLDKQLYWIDSRQNMIRKAQEDGSQGFTVVVSSVPSQNLEIQPYDLSIDIYSRYIYWTCEATNVINVTRLDGRSVGVVLKGEQDRPRAVVVNPEKGYMYFTNLQERSPKIERAALDGTEREVLFFSGLSKPIALALDSRLGKLFWADSDLRRIESSDLSGANRIVLEDSNILQPVGLTVFENWLYWIDKQQQMIEKIDMTGREGRTKVQARIAQLSDIHAVKELNLQEYRQHPCAQDNGGCSHICLVKGDGTTRCSCPMHLVLLQDELSCGEPPTCSPQQFTCFTGEIDCIPVAWRCDGFTECEDHSDELNCPVCSESQFQCASGQCIDGALRCNGDANCQDKSDEKNCEVLCLIDQFRCANGQCIGKHKKCDHNVDCSDKSDELDCYPTEEPAPQATNTVGSVIGVIVTIFVSGTVYFICQRMLCPRMKGDGETMTNDYVVHGPASVPLGYVPHPSSLSGSLPGMSRGKSMISSLSIMGGSSGPPYDRAHVTGASSSSSSSTKGTYFPAILNPPPSPATERSHYTMEFGYSSNSPSTHRSYSYRPYSYRHFAPPTTPCSTDVCDSDYAPSRRMTSVATAKGYTSDLNYDSEPVPPPPTPRSQYLSAEENYESCPPSPYTERSYSHHLYPPPPSPCTDSS
B3: LRP6: N81Q (protein)
parent chain: MGAVLRSLLACSFCVLLRAAPLLLYANRRDLRLVDATNGKENATIVVGGLEDAAAVDFVFSHGLIYWSDVSEEAIKRTEFNKTESVQNVVVSGLLSPDGLACDWLGEKLYWTDSETNRIEVSNLDGSLRKVLFWQELDQPRAIALDPSSGFMYWTDWGEVPKIERAGMDGSSRFIIINSEIYWPNGLTLDYEEQKLYWADAKLNFIHKSNLDGTNRQAVVKGSLPHPFALTLFEDILYWTDWSTHSILACNKYTGEGLREIHSDIFSPMDIHAFSQQRQPNATNPCGIDNGGCSHLCLMSPVKPFYQCACPTGVKLLENGKTCKDGATELLLLARRTDLRRISLDTPDFTDIVLQLEDIRHAIAIDYDPVEGYIYWTDDEVRAIRRSFIDGSGSQFVVTAQIAHPDGIAVDWVARNLYWTDTGTDRIEVTRLNGTMRKILISEDLEEPRAIVLDPMVGYMYWTDWGEIPKIERAALDGSDRVVLVNTSLGWPNGLALDYDEGKIYWGDAKTDKIEVMNTDGTGRRVLVEDKIPHIFGFTLLGDYVYWTDWQRRSIERVHKRSAEREVIIDQLPDLMGLKATNVHRVIGSNPCAEENGGCSHLCLYRPQGLRCACPIGFELISDMKTCIVPEAFLLFSRRADIRRISLETNNNNVAIPLTGVKEASALDFDVTDNRIYWTDISLKTISRAFMNGSALEHVVEFGLDYPEGMAVDWLGKNLYWADTGTNRIEVSKLDGQHRQVLVWKDLDSPRALALDPAEGFMYWTEWGGKPKIDRAAMDGSERTTLVPNVGRANGLTIDYAKRRLYWTDLDTNLIESSNMLGLNREVIADDLPHPFGLTQYQDYIYWTDWSRRSIERANKTSGQNRTIIQGHLDYVMDILVFHSSRQSGWNECASSNGHCSHLCLAVPVGGFVCGCPAHYSLNADNRTCSAPTTFLLFSQKSAINRMVIDEQQSPDIILPIHSLRNVRAIDYDPLDKQLYWIDSRQNMIRKAQEDGSQGFTVVVSSVPSQNLEIQPYDLSIDIYSRYIYWTCEATNVINVTRLDGRSVGVVLKGEQDRPRAVVVNPEKGYMYFTNLQERSPKIERAALDGTEREVLFFSGLSKPIALALDSRLGKLFWADSDLRRIESSDLSGANRIVLEDSNILQPVGLTVFENWLYWIDKQQQMIEKIDMTGREGRTKVQARIAQLSDIHAVKELNLQEYRQHPCAQDNGGCSHICLVKGDGTTRCSCPMHLVLLQDELSCGEPPTCSPQQFTCFTGEIDCIPVAWRCDGFTECEDHSDELNCPVCSESQFQCASGQCIDGALRCNGDANCQDKSDEKNCEVLCLIDQFRCANGQCIGKHKKCDHNVDCSDKSDELDCYPTEEPAPQATNTVGSVIGVIVTIFVSGTVYFICQRMLCPRMKGDGETMTNDYVVHGPASVPLGYVPHPSSLSGSLPGMSRGKSMISSLSIMGGSSGPPYDRAHVTGASSSSSSSTKGTYFPAILNPPPSPATERSHYTMEFGYSSNSPSTHRSYSYRPYSYRHFAPPTTPCSTDVCDSDYAPSRRMTSVATAKGYTSDLNYDSEPVPPPPTPRSQYLSAEENYESCPPSPYTERSYSHHLYPPPPSPCTDSS
B4: LRP6: N42Q (protein)
parent chain: MGAVLRSLLACSFCVLLRAAPLLLYANRRDLRLVDATNGKENATIVVGGLEDAAAVDFVFSHGLIYWSDVSEEAIKRTEFNKTESVQNVVVSGLLSPDGLACDWLGEKLYWTDSETNRIEVSNLDGSLRKVLFWQELDQPRAIALDPSSGFMYWTDWGEVPKIERAGMDGSSRFIIINSEIYWPNGLTLDYEEQKLYWADAKLNFIHKSNLDGTNRQAVVKGSLPHPFALTLFEDILYWTDWSTHSILACNKYTGEGLREIHSDIFSPMDIHAFSQQRQPNATNPCGIDNGGCSHLCLMSPVKPFYQCACPTGVKLLENGKTCKDGATELLLLARRTDLRRISLDTPDFTDIVLQLEDIRHAIAIDYDPVEGYIYWTDDEVRAIRRSFIDGSGSQFVVTAQIAHPDGIAVDWVARNLYWTDTGTDRIEVTRLNGTMRKILISEDLEEPRAIVLDPMVGYMYWTDWGEIPKIERAALDGSDRVVLVNTSLGWPNGLALDYDEGKIYWGDAKTDKIEVMNTDGTGRRVLVEDKIPHIFGFTLLGDYVYWTDWQRRSIERVHKRSAEREVIIDQLPDLMGLKATNVHRVIGSNPCAEENGGCSHLCLYRPQGLRCACPIGFELISDMKTCIVPEAFLLFSRRADIRRISLETNNNNVAIPLTGVKEASALDFDVTDNRIYWTDISLKTISRAFMNGSALEHVVEFGLDYPEGMAVDWLGKNLYWADTGTNRIEVSKLDGQHRQVLVWKDLDSPRALALDPAEGFMYWTEWGGKPKIDRAAMDGSERTTLVPNVGRANGLTIDYAKRRLYWTDLDTNLIESSNMLGLNREVIADDLPHPFGLTQYQDYIYWTDWSRRSIERANKTSGQNRTIIQGHLDYVMDILVFHSSRQSGWNECASSNGHCSHLCLAVPVGGFVCGCPAHYSLNADNRTCSAPTTFLLFSQKSAINRMVIDEQQSPDIILPIHSLRNVRAIDYDPLDKQLYWIDSRQNMIRKAQEDGSQGFTVVVSSVPSQNLEIQPYDLSIDIYSRYIYWTCEATNVINVTRLDGRSVGVVLKGEQDRPRAVVVNPEKGYMYFTNLQERSPKIERAALDGTEREVLFFSGLSKPIALALDSRLGKLFWADSDLRRIESSDLSGANRIVLEDSNILQPVGLTVFENWLYWIDKQQQMIEKIDMTGREGRTKVQARIAQLSDIHAVKELNLQEYRQHPCAQDNGGCSHICLVKGDGTTRCSCPMHLVLLQDELSCGEPPTCSPQQFTCFTGEIDCIPVAWRCDGFTECEDHSDELNCPVCSESQFQCASGQCIDGALRCNGDANCQDKSDEKNCEVLCLIDQFRCANGQCIGKHKKCDHNVDCSDKSDELDCYPTEEPAPQATNTVGSVIGVIVTIFVSGTVYFICQRMLCPRMKGDGETMTNDYVVHGPASVPLGYVPHPSSLSGSLPGMSRGKSMISSLSIMGGSSGPPYDRAHVTGASSSSSSSTKGTYFPAILNPPPSPATERSHYTMEFGYSSNSPSTHRSYSYRPYSYRHFAPPTTPCSTDVCDSDYAPSRRMTSVATAKGYTSDLNYDSEPVPPPPTPRSQYLSAEENYESCPPSPYTERSYSHHLYPPPPSPCTDSS

The text below walks through data of article PMC10047360.

The data set can be described thus: Western blot, mature upper band, B3GnT2-/- HEK293T. To be noted: glycan lost; control: wild-type LRP6. A general note: In western blotting, separated proteins are transferred to a membrane and probed.
In the case of B1, the localisation_or_trafficking result is reported as “no change”.
Turning to B2, the localisation_or_trafficking result is on record as “abolishes”.
In the case of B3, the localisation_or_trafficking entry is “abolishes”.
For B4, the localisation_or_trafficking result is “no change”.
